Results on 1 molecule are retold here after US20130309248A1 (CRUCELL HOLLAND B V, published 2013).

Bounds are passed on as bounds.

Common to all, as to assay: cell-based or functional assay
Experiment [1] addresses T1, HA of virus A/Johannesburg/33/94 (H3N2) (influenza A virus (H3N2)).
The target in experiment [2] is T2, HA of virus A/Chick/Germany/N/49 (H10) (influenza A virus (H10)).
For experiment [3], the target named is T3, HA of virus A/Hiroshima/52/2005 (H3N2) (influenza A virus (H3N2)).
Experiment [4] deals with T4, HA of virus A/Mallard/Netherlands/12/2000 (H7N3) (influenza A virus (H7N3)).
For experiment [5], the target named is T5, HA of virus A/Wisconsin/67/2005 (H3N2) (influenza A virus (H3N2)).
The target of experiment [6] is T6, HA of virus A/Panama/2000/1999 (H3N2) (influenza A virus (H3N2)).
Experiment [7] addresses T1, HA of virus A/Johannesburg/33/94 (H3N2). This is another data set of the same source.
Experiment [8] deals with HA of virus A/New Caledonia/20/1999 (H1N1) (influenza A virus (H1N1)).
In experiment [9] the target is T2, HA of virus A/Chick/Germany/N/49 (H10). This is another data set of the same source.
In experiment [10] the target is HA of virus A/Brisbane/59/2007 (H1N1) (influenza A virus (H1N1)).
Experiment [11] concerns the target T3, HA of virus A/Hiroshima/52/2005 (H3N2). This is another data set of the same source.
Experiment [12] deals with T4, HA of virus …. The source holds these as a separate data set.
Experiment [13] concerns the target T5, HA of virus A/Wisconsin/67/2005 (H3N2). This is another data set of the same source.
In experiment [14] the target is T6, HA of virus A/Panama/2000/1999 (H3N2). The source holds these as a separate data set.
Experiment [15] deals with HA of virus A/Solomon Islands/IVR-145 (H1N1) (influenza A virus (H1N1)).

B1: CR8041 (antibody, V domains shown)
VH: QVQLVQSGAEVKKPGASVKVSCQASGYTFTSFGLSWVRQAPGQGPEWMGWISAYNGEIKYAQKFQGRVSMTTDTSTRTAYMEVRSLRPDDTAVYYCAREPPLYFSSWSLDF
VL: EIVLTQSPGTLSLSPGERATLSCRASQSVSSNYLAWFQQKPGQAPRLLIYGASRRATGIPDRFSGSGSGTDFTLTISRLEPEDFAVYYCQQYDSSPRT
B1: the SK50 titer in [1] worked out at 1.6 µg/mL; in experiment [2] it was 37.2 µg/mL; in experiment [3], 3.5 µg/mL; in experiment [4], 38 µg/mL; in experiment [5], 3.3 µg/mL; in [6] it was 5 µg/mL. Besides, the “Neutralization titer SK50” value in experiment [7] was 1.69 µg/mL; in experiment [8], more than 40 µg/mL; in experiment [9] it was 25 µg/mL; in [10], more than 40 µg/mL; in experiment [11], 4.75 µg/mL; in experiment [12] it was 1.1 µg/mL. In addition, the “Neutralization titer SK50” value is 3.99 µg/mL in [13], 2.99 µg/mL in experiment [14] and more than 40 µg/mL in [15].
